From the nanobody polyreactivity screen of Harvey et al. (2022)

Test: yeast display, Sf9 membrane polyspecificity reagent, FACS + sequencing; frameworks hold sequencing errors
How it was run: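 Polyreactivity labels are assigned by the sorting gate from which each nanobody was recovered. The gates were low and high (top ~1%), set on anti-HA fluorescence for expression and streptavidin fluorescence for reagent binding. Before sorting, galactose-induced (36–48 hours) yeast display cells were stained for 1 hour at 4 °C with 10% biotinylated, detergent-solubilized Sf9 membrane reagent.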

Sequence | polyreactivity (PSR sort gate)
QLKHEESRGGLVQAGGSLRLSCAASGSTIYTYVMGWYRQAPGNERELVAAISWSGSSTYYADSVKGRFTISRDNAKNTVYLHMNSLKPEDTAVYYCNADPSQHTSAGYSSYEYYYWGQGTQVTVSS | low polyreactivity
QLQHVESGGGLVQAGGSLRLSCAASGRIFGVNAQGWYRQAPGKERELVAAITSGGSTYYADSVKGRFTISRDNAKNTVYLQMKSLKPEDTAVYYGAARYYYLLWYTLPTKYDYWGQGTQVTVSS | high polyreactivity
QLQLEESGGGLVQAGGSLRISCDASGTIFGNYAMGWYRQAPGKERELVAAITGSGGRTYYADSVKGRFTISRDNAKNTVYLQMNSLKPEDTAVYYCAARSYGRWYYTLYNYWGQGTQVTVSS | high polyreactivity
QLQLEESGGGLVQAGGSLRLSCAASVRTLRRNAMGWYRQAPGKEKELVAAITGSGGSTYYADSVKGRFTISRDNAKNTVYLQMNSLKPEDTAVYYCAARGPSRRRDGSDYWGQGTQVTVSS | high polyreactivity
QLQLEESGGGLVQAGGSLRLSCAAYGNILGYNAMGWYRQAPGKERELVAAISDNADSTYYADSVKGRFTISRDNAKNTVYLQMNSLKPEDPAVYYCAADWVLRTWLFWYTKYDYWGQGTQVTVSS | low polyreactivity
QLQLQESGGGLVQAGGSLRLSCAASGSISHYIFMGWYRKAPGKEREFVAGIGYGGTTNYADSVKGRFTISRDNAINNVYLQMNSLKPEDTAMYYCAAREATEFYLYYWGQGTQVTVSS | low polyreactivity
QLQLQESGRGLVQAGGSLRLSCAASGNIVDADIMGWYRQAPGKERELVASITDGGSTNYADSVKGRFTISRDNAKNTVYLQMNSLKTEDTAVYYCAAIAYPVIPTYFDYDSEYFYWGQGTQVTVSS | low polyreactivity
QLQLVDSGGGLVQAGGSLRLSCAASGSIFAQYAMGWYRQAPEKERELVADISGDGSTYYADSVKGRFTISRDNAKNTVYLQMNSLKPEDTAVYYCADRKLYGSPEHGYWGQGTQVTVSS | high polyreactivity
QLQLVESAGGLVQAGGSLRLRCAASGSTFSSYAMGWYRQAPWKERELVADITSSGGSTYYADSVKGRFTISRDNAKNSVYLQMNSLTPEDTAVYYCAADDVIFWLYYYWGQGTQVTVSS | low polyreactivity
QLQLVESCGGLVQAGGSLRLSCAASGSILLNNAMGWYRQAPGKERELVAAISLSGGGSTYYADSVKGRFTLSRDNAKNTVYLQMNSLIPEDTAVYYCNADDPYLYYDSYDYWGQGTQVTVSS | low polyreactivity
QLQLVESGAGLVQAGGSLRLSCAASGNIFRKNAMGRSRQAPGKERELVAAISRRGGNSYYADSVKGRFTISRDNAKNTVYLQMNSLKPEDTAVYYCAADWSPTAASDYWGQGTQVTVSS | high polyreactivity
QLQLVESGGGFVQAGGSLRLSCAASGSTFQIYTMGWYRQAPGKERELVAAITNGGGSTYYADSVKGRFTISRDKANNTVYLQMNSLKPEDTAVYYCAAEQRYPLIILYDYWGQGTQVTVSS | low polyreactivity
QLQLVESGGGFVQAGGSLRLSCDASGSTFGNYTMGWYRQAPGKERELVAAISFSGGRTYYADSVKGRFTISRDNAKNTVYLQMNSLKPADTAVYYCAKRSYGYSAFIYNYWGQGTQVTVSS | high polyreactivity
QLQLVESGGGLVLAAGSLRLSCAASGYTFKSYAMGCSRQAPGKERELVAAISNGGNTYYADSVKGRFTISRDNAKNTVYIQMNSLKPEDTAVYYCAARYGYYYSRYDHWGQGTQVTVSS | low polyreactivity
QLQLVESGGGLVPAGGSLRLSCASSGSIFKTYAMGWSRQAPGKDRELVAAIRGSGGSTYYADSVKGRFTIARDYAKNTVYLQMKSLKPEDTAFYYCARVGTKYRTNFFNGNDDWGQGTQVTVSS | low polyreactivity
QLQLVESGGGLVQAGCSLRLICAASGFTFYRNAMGWYRQAPGKEREFVAAISSSGGGTYYADSVKGRFTISRDNAKNTVYLQMNSLKPDDTAVYYCAAKYPQKTTVNSYGNSFYYWGQGTQVTVSS | high polyreactivity
QLQLVESGGGLVQAGGSIRLSCAASGSIFYRYAKGWNRQAPGKESELVAAISSRGGSKYYADSVKARFTISRDNAKNTVYLQMNSLKPEDTAVYYCAARSGGSGGTYGYWGQGPQVTVSS | high polyreactivity
QLQLVESGGGLVQAGGSLLLSCAASGITFPANAMGWYRQAPGKERELVAAITGRGGRTYYADSVKGRFTISRYYAKNTVYLQMISLKPEDTAVYYCNAYLWRVTQNYDYWGQGTQVTVSS | high polyreactivity
QLQLVESGGGLVQAGGSLRITCAASGSTFLTYSMGWYRQAPGKESELVAGISYSTGSTYYADSVKGRFTISRDNAKYTVYLQMNSLKPEDTAVYYCAADEWDCLWYYYYFNYEYWGQGTQVTVSS | low polyreactivity
QLQLVESGGGLVQAGGSLRLISAASGLTFADYAMGWYRQAPGKERELVAAISSNGGSTNYADSVKGRFTISRDNAKNTVYLQMNSLKPEDTAVYYCAARPRNNARFWDYNYWGQGTQVTVSS | high polyreactivity
QLQLVESGGGLVQAGGSLRLSCAASGFIFDSYAMGWYRQAPGKERELVAAISWSGSSTYYADSVKGRFTISRDNAKNTVFLQMNSLKPEDTAVYYCGALVYPYWGGSMYYWGQGTQVTVSS | high polyreactivity
QLQLVESGGGLVQAGGSLRLSCAASGFTFWGYTIGWYRPAPGKERQLVAGITLSGGSTYYADSVKGRFTISRDNAKNTVYLQMNSLKPEDTAVYYCAAKPYQVSSYDFSLRDYWGQGTQVTVSS | low polyreactivity

Sequence | polyreactivity (PSR sort gate)
QLQLVESGGGLVQAGGSLRLSCAASGLIFIYYAMGWYRQAPGKERELVASITNSGGSTYYADSVKGRFTISRDNAKNTVYLQMNSLKPEDTALYYCAADYKTIVQRYGYYYWGQGTQVTVSS | low polyreactivity
QLQLVESGGGLVQAGGSLRLSCAASGLTFNTYAMGWSRQAPAKERELVAAITKGGGRTYYADSVKGRFTISRDNAKNTVYLQMNSLKPEDTAVYYCAVVSWYRYSRYENDYWGQGTQVTVSS | high polyreactivity
QLQLVESGGGLVQAGGSLRLSCAASGLTFSYYAMGWYRQAPGKETELVSAISRGGTTNYADSVKGRFTISRDNAKNTVYLQMNSLKPEDTAVYYCAASYFRRGFYSIYEYDYWGQGTQVTVSS | low polyreactivity
QLQLVESGGGLVQAGGSLRLSCAASGRIFGVYVMGLYRQAPGKERELVAAISWSGSHTYYADSVKGRFTISRDNAKNTVYLQMNSLKPEDTAVYYCNADSYPDYTGPGLDWYDYWGQGTQVTVSS | low polyreactivity
QLQLVESGGGLVQAGGSLRLSCAASGRTFGYNVMGWYRQAPGKERELVAAISSSGGSTYYADSVKGRFTISRDNAKNTVYLQMNSLKPEDTAVYYCAAQVRYYQSGPMYYWGQGTQVTVSS | high polyreactivity
QLQLVESGGGLVQAGGSLRLSCAASGRTFYRNGKGWYIQAPGKERELVATISSGGITNYADSVKGRFTISRDNAKNTVYLQMNSLKPEDTAVYYCNAKKAYYGRGMNYWGQGTQVTVSS | low polyreactivity
QLQLVESGGGLVQAGGSLRLSCAASGRTFYSYAKGWSRPAPGTDRQFVAAISVRGVITYYADSVKGRFTISRDNAKNTVYLQMNSLKPEDTAVDYCAADWSGYYTFDYWGQGTQVTVSS | low polyreactivity
QLQLVESGGGLVQAGGSLRLSCAASGSIFFNYTMGWYRQAPGNERELVAAINSSGGRTNYADSVKGRFTISRDNAKNTVYLQMNSLKPEDTAVYYCAAGQSRYRELEYWGQGTQVTVSS | low polyreactivity
QLQLVESGGGLVQAGGSLRLSCAASGSIFNRYAMGSYRQAPGKERELVAAITRSAARTYYADSVKGRFTISRDNAKTTVYLQMNRLKPEDTAVYYCKAATTPYGYSYYYLGQGTQVTVSS | high polyreactivity
QLQLVESGGGLVQAGGSLRLSCAASGSIFRTNVMGWYRQAPGKERELVAAISRRGGSTYYADSVKGRFTISRDNAKNTVYLQMISLKPEDTAVYYCAASSSAYRDDYWGQGTQVTVSS | high polyreactivity
QLQLVESGGGLVQAGGSLRLSCAASGSIFVTYAMGWYSQAPGKEMELVAAINYSGGSTYYADSVTGRFTISRDNAKNTVYLQMNSLKPEATAVYYCAAAVAVFSFDYPHYYEYEYWGQGTQVTVSS | low polyreactivity
QLQLVESGGGLVQAGGSLRLSCAASGSIFYPYAMGWYRQAPGKERELVATINEDGGSTYYADSVKGRFTISRDNAKNTVYLQMNSLKQEDTAVYYCNTDHFEDYHTDFWSDYEYWGHGTQVTVSS | low polyreactivity
QLQLVESGGGLVQAGGSLRLSCAASGSISAVNTMGWYRQAPRKERELVATISYSTASTYYADSVKGRFTISRDNAKITVYLQINSRKPEDTAFYYCNKDGRRYAYNSEYDHWGQGTQVTVSS | low polyreactivity
QLQLVESGGGLVQAGGSLRLSCAASGSTFPEYVMGWYRQAPAKERELVAAITRRGGRTYYADSVKGRFTISRDNAKNTVYFQMNSLKPEDTAVYYCAAKSAVVVGMDSWGQGTQVTVSS | high polyreactivity
QLQLVESGGGLVQAGGSLRLSCAASGSTFVYNAMGWYRQAPGKERELVAAISTGGSTYYADSVKGRFTISRDNAKNTVYLQMNSLKPEDTAVYYCAAGYSWGYSSQKLRYGYWGQGTQVTVSS | high polyreactivity
QLQLVESGGGLVQAGGSLRLSCAASGSTFVYYAMGWYRPAPGKERELVAGITSSGGSTYYADSVKGRFTISRDNAKNTVYLQMNSLKPEDTAVYYCAAYVWVQQGRYYYWGQGTQVTVSS | low polyreactivity
QLQLVESGGGLVQAGGSLRLSCAASGSTFYAYAMGWYRQAPGKERELVARIRWRGGRTYYADSVKGRFTISRDNAKNTVYLRMNSLKPEDTAVYYCAADLSRAGGGYWGQGTQVTVSS | high polyreactivity
QLQLVESGGGLVQAGGSLRLSCAASGSTFYLYDLGWYIQAPGKESELVAAITSSGGSTYYADSVKGRFTISLDNAKNTVYLQMTSLKPEDTAVYYCAARYRGWVYSYDYWGQGTQVTVSS | low polyreactivity
QLQLVESGGGLVQAGGSLRLSCAPSGSIFYYSAMGWSRQAPGKESEFVAAITRNGGSTYYADSVKGRFTISRDNAKNTVYLQMNSLKPVATAVFYCNAVRVRVTSHRIRQLDYGYWGQGTQVTVSS | low polyreactivity
QLQLVESGGGLVQAGGSLRLSCGASGFTFYVYAMGWSRQAPGKERELVAAISKSGGSTYYADSVKGRFTISRDHATNTVDLQMTSLKPEDTAVYSCAVFDNRSGYRGGHRYNSWGQATQVTVSS | high polyreactivity
QLQLVESGGGLVQAGGSLRLSSAASGFIFDGNAMGGYRQAPGKERELVAAISWDGGTYYADSVKGRFTISRDNAKNTVYLQMNSLKPEDTAVDYCPAEQTQLYSFGWDEYWGQGTQVTVSS | low polyreactivity
